Consider 34 variants from the supplement of paper PMC6755084.

The chains are these.
B1: F1*; the commonest letter at each place (parent)
chain: GAGACCGCAACTGAAAAGTTGTTATCACTTGTCGTAAGACACTTTGGATGGGTTGAAGTTCTGCACGTAGAAGCAAAAGGC

In this data set the parent is B1. Kind of data set: fraction ligated after 30 min (ligated reads / total reads); higher = more ligase activity. As to conditions: with F1*sub RNA substrate (template-directed ligation), 42 °C. In outline: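 Ribozyme variants were transcribed with T7 from PCR-amplified oligo-pool templates and gel-purified. Ligated and unligated bands, separated on gel, were reverse transcribed with barcoded primers and sequenced on a MiSeq, with core bases filtered at quality ≥20. Fraction ligated per variant was computed as ligated reads divided by total reads.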
For GAGACCGCAACTGAAAAGTTGTTATCACTTGTAGTAAGACACTTTAGATGGGTTGAAGTTCTGCACGTAGAAGCAAAAGGC, the fraction ligated was found to be 0.84. The value for GAGACCGCAACTGAAAAGTTGTTATCACTTGTAGTAAGACACTTTCGATGGGTTGAAGTTCTGCACGTAGAAGCAAAAGGC was 0.797; that for GAGACCGCAACTGAAAAGTTGTTATCACTTGTAGTAAGACACCTTGGATGGGTTGAAGTTCTGCACGTAGAAGCAAAAGGC was 0.834. With GAGACCGCAACTGAAAAGTTGTTATCACTTGTAGTAAGACACGTTGGATGGGTTGAAGTTCTGCACGTAGAAGCAAAAGGC, the fraction ligated worked out at 0.799. As to GAGACCGCAACTGAAAAGTTGTTATCACTTGTAGTAAGACACATTGGATGGGTTGAAGTTCTGCACGTAGAAGCAAAAGGC, the fraction ligated stood at 0.83. Next, GAGACCGCAACTGAAAAGTTGTTATCACTTGTAGTAAGACTCTTTGGATGGGTTGAAGTTCTGCACGTAGAAGCAAAAGGC: 0.839; GAGACCGCAACTGAAAAGTTGTTATCACTTGTAGTAAGACGCTTTGGATGGGTTGAAGTTCTGCACGTAGAAGCAAAAGGC: 0.823; GAGACCGCAACTGAAAAGTTGTTATCACTTGTAGTAAGACCCTTTGGATGGGTTGAAGTTCTGCACGTAGAAGCAAAAGGC: 0.818. The value for GAGACCGCAACTGAAAAGTTGTTATCACTTGTGGTATGACACTTTGGATGGGTTGAAGTTCTGCACGTAGAAGCAAAAGGC was 0.853. Next, GAGACCGCAACTGAAAAGTTGTTATCACTTGTGGTAGGACACTTTGGATGGGTTGAAGTTCTGCACGTAGAAGCAAAAGGC: 0.847; GAGACCGCAACTGAAAAGTTGTTATCACTTGTGGTACGACACTTTGGATGGGTTGAAGTTCTGCACGTAGAAGCAAAAGGC: 0.824.

On to GAGACCGCAACTGAAAAGTTGTTATCACTTGTAGTAAGACACTTCGGATGGGTTGAAGTTCTGCACGTAGAAGCAAAAGGC, for which the fraction ligated worked out at 0.53. The value for GAGACCGCAACTGAAAAGTTGTTATCACTTGTAGTAAGACACTTAGGATGGGTTGAAGTTCTGCACGTAGAAGCAAAAGGC was 0.803; that for GAGACCGCAACTGAAAAGTTGTTATCACTTGTAGTAAGACACTTGGGATGGGTTGAAGTTCTGCACGTAGAAGCAAAAGGC was 0.0419. Take GAGACCGCAACTGAAAAGTTGTTATCACTTGTAGTAAGACACTCTGGATGGGTTGAAGTTCTGCACGTAGAAGCAAAAGGC: the fraction ligated turned out to be 0.84.

On to GAGACCGCAACTGAAAAGTTGTTATCACTTGTAGTAAGACACTATGGATGGGTTGAAGTTCTGCACGTAGAAGCAAAAGGC, for which the fraction ligated was 0.805.

On to GAGACCGCAACTGAAAAGTTGTTATCACTTGTAGTAAGACACTGTGGATGGGTTGAAGTTCTGCACGTAGAAGCAAAAGGC, for which the fraction ligated was 0.821. With GAGACCGCAACTGAAAAGTTGTTATCACTTGTGGTAAGTCACTTTGGATGGGTTGAAGTTCTGCACGTAGAAGCAAAAGGC, the fraction ligated is 0.851. The value for GAGACCGCAACTGAAAAGTTGTTATCACTTGTGGTAAGCCACTTTGGATGGGTTGAAGTTCTGCACGTAGAAGCAAAAGGC was 0.833. The value for GAGACCGCAACTGAAAAGTTGTTATCACTTGTGGTAAGGCACTTTGGATGGGTTGAAGTTCTGCACGTAGAAGCAAAAGGC was 0.836.

Consider GAGACCGCAACTGAAAAGTTGTTATCACTTGTAGTATGACACTTTGGATGGGTTGAAGTTCTGCACGTAGAAGCAAAAGGC, for which the fraction ligated was found to be 0.849. Turning to GAGACCGCAACTGAAAAGTTGTTATCACTTGTAGTAATACACTTTGGATGGGTTGAAGTTCTGCACGTAGAAGCAAAAGGC, the fraction ligated amounted to 0.86. The value for GAGACCGCAACTGAAAAGTTGTTATCACTTGTAGTAAAACACTTTGGATGGGTTGAAGTTCTGCACGTAGAAGCAAAAGGC was 0.857; that for GAGACCGCAACTGAAAAGTTGTTATCACTTGTAGTAACACACTTTGGATGGGTTGAAGTTCTGCACGTAGAAGCAAAAGGC was 0.832; that for GAGACCGCAACTGAAAAGTTGTTATCACTTGTAGTAAGACACTTTGGATAGGTTGAAGTTCTGCACGTAGAAGCAAAAGGC was 0.343. The value for GAGACCGCAACTGAAAAGTTGTTATCACTTGTAGTAAGACACTTTGGATTGGTTGAAGTTCTGCACGTAGAAGCAAAAGGC was 0.627; that for GAGACCGCAACTGAAAAGTTGTTATCACTTGTAGTAAGACACTTTGGATCGGTTGAAGTTCTGCACGTAGAAGCAAAAGGC was 0.0908; that for GAGACCGCAACTGAAAAGTTGTTATCACTTGTAGTAAGTCACTTTGGATGGGTTGAAGTTCTGCACGTAGAAGCAAAAGGC was 0.852. As to GAGACCGCAACTGAAAAGTTGTTATCACTTGTAGTAAGCCACTTTGGATGGGTTGAAGTTCTGCACGTAGAAGCAAAAGGC, the fraction ligated stood at 0.792. The value for GAGACCGCAACTGAAAAGTTGTTATCACTTGTAGTAAGGCACTTTGGATGGGTTGAAGTTCTGCACGTAGAAGCAAAAGGC was 0.84; that for GAGACCGCAACTGAAAAGTTGTTATCACTTGTGGTTAGACACTTTGGATGGGTTGAAGTTCTGCACGTAGAAGCAAAAGGC was 0.825; that for GAGACCGCAACTGAAAAGTTGTTATCACTTGTGGTGAGACACTTTGGATGGGTTGAAGTTCTGCACGTAGAAGCAAAAGGC was 0.821. The value for GAGACCGCAACTGAAAAGTTGTTATCACTTGTGGTCAGACACTTTGGATGGGTTGAAGTTCTGCACGTAGAAGCAAAAGGC was 0.796; that for GAGACCGCAACTGAAAAGTTGTTATCACTTGTGGTAAGACACTTTGGATGGGTTGAAGTTCTGCACGTAGAAGCAAAAGGC was 0.831.
